# From IntAct's records for PubMed 30530185
# B1: Coiled-coil-helix-coiled-coil-helix domain-containing protein 2 (Homo sapiens), Q9Y6H1 (parent)
# chain: MPRGSRSRTSRMAPPASRAPQMRAAPRPAPVAQPPAAAPPSAVGSSAAAPRQPGLMAQMATTAAGVAVGSAVGHTLGHAITGGFSGGSNAEPARPDITYQEPQGTQPAQQQQPCLYEIKQFLECAQNQGDIKLCEGFNEVLKQCRLANGLA
# partner: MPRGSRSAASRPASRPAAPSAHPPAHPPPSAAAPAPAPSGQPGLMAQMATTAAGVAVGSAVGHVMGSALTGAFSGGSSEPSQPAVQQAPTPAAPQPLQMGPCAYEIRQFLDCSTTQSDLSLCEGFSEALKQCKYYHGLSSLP
# Variants of: B1
# Details: with chc10_human CHCHD10, Q8WYQ3
row,effect of a mutation on the interaction,Variant
1,increasing interaction strength,T61I
